How the values were obtained:
[1] = biological target: recombinant prostasin enzyme (Homo sapiens, UniProt Q16651); test: Incubation with recombinant prostasin enzyme, LC/MS analysis of incapacitation byproduct; assay type: biochemical
Procedure: This is not observed in absence of the enzyme incubation.
Then in FIG. 10, incubation of the drug alone with the prostasin enzyme can be analyzed by LC/MS for the byproduct of incapacitation (the alkylation of the decoy yielding a 1-methylpiperazine-one).
The drug could be tested in similar ways as the other compounds.
The strategy of this example can be generalized for any peptide based PROTAC for TrkA or any other target.

[2] = Cell uptake by imaging of conjugated dancyl fluorophore; assay type: cell-based; conditions: data not shown
Text: Compound 9 was shown efficacious in these experiments.

Sequence of recombinant prostasin enzyme (Q16651 33-343, species assumed): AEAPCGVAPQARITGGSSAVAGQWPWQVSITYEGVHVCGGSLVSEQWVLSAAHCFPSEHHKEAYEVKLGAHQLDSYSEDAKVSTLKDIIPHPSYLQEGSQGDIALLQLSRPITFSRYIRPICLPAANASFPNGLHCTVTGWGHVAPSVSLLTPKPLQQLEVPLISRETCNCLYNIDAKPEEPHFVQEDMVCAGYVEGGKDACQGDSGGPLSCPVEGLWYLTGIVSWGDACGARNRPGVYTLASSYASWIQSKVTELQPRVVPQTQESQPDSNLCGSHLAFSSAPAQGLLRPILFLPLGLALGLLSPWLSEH

incapacitation byproduct seen by LC/MS ([1]; absence of the enzyme incubation) | incapacitation byproduct seen by LC/MS ([1]; incubated with recombinant prostasin enzyme) | Sequence | cell uptake [2]
not observed | independent activator byproduct | LFLGQARGGRRRRPPP | –
– | – | RRARRPRGRQAR | demonstrated for cell uptake

Reference: patent US20260108617A1, “AUTO-TUNING DRUG REGULATOR CONSTRUCTIONS” (priority 2023, published 2026)
